Reference: patent US20050070470A1 (ADMINISTRATORS OF THE TULANE EDUCATIONAL FUND, published 2005)
Bridges are numbered along the chain shown (N, C = ends). Where no end group is shown, it is not given here. [ ]: non-standard residue; d: D form. The star is where a group is joined. DOTA = O=C(O)CN1CCN(CC(=O)O)CCN(CC(=O)*)CCN(CC(=O)O)CC1

B1: Acetyl-D-Ser-D-Ser-D-Ser-D-Ser-D-Ser-D-Ser-D-Ser-D-Ser-D-Ser-D-Ser-L-Lys-D-Tyr-D-Tyr-cyclo[L-Cys-L-Phe-D-Trp-L-Lys-L-Thr-L-Cys]-L-Thr-NH2 (peptide)
peptide: Ac-[dS][dS][dS][dS][dS][dS][dS][dS][dS][dS]K[dY][dY]CF[dW]KTCT-NH2
modifications: disulfide 14-19
SMILES: CC(=O)N[C@H](CO)C(=O)N[C@H](CO)C(=O)N[C@H](CO)C(=O)N[C@H](CO)C(=O)N[C@H](CO)C(=O)N[C@H](CO)C(=O)N[C@H](CO)C(=O)N[C@H](CO)C(=O)N[C@H](CO)C(=O)N[C@H](CO)C(=O)N[C@@H](CCCCN)C(=O)N[C@H](Cc1ccc(O)cc1)C(=O)N[C@H](Cc1ccc(O)cc1)C(=O)N[C@H]1CSSC[C@@H](C(=O)N[C@H](C(N)=O)[C@@H](C)O)NC(=O)[C@H]([C@@H](C)O)NC(=O)[C@H](CCCCN)NC(=O)[C@@H](Cc2c[nH]c3ccccc23)NC(=O)[C@H](Cc2ccccc2)NC1=O
B2: D-Ser-D-Ser-D-Ser-D-Ser-D-Ser-D-Ser-D-Ser-D-Ser-D-Ser-D-Ser-L-Lys-D-Tyr-D-Tyr-cyclo[L-Cys-L-Phe-D-Trp-L-Lys-L-Thr-L-Cys]-L-Thr-NH2 (peptide)
peptide: [dS][dS][dS][dS][dS][dS][dS][dS][dS][dS]K[dY][dY]CF[dW]KTCT-NH2
modifications: disulfide 14-19; N-terminus assumed
SMILES: C[C@@H](O)[C@H](NC(=O)[C@@H]1CSSC[C@H](NC(=O)[C@@H](Cc2ccc(O)cc2)NC(=O)[C@@H](Cc2ccc(O)cc2)NC(=O)[C@H](CCCCN)NC(=O)[C@@H](CO)NC(=O)[C@@H](CO)NC(=O)[C@@H](CO)NC(=O)[C@@H](CO)NC(=O)[C@@H](CO)NC(=O)[C@@H](CO)NC(=O)[C@@H](CO)NC(=O)[C@@H](CO)NC(=O)[C@@H](CO)NC(=O)[C@H](N)CO)C(=O)N[C@@H](Cc2ccccc2)C(=O)N[C@H](Cc2c[nH]c3ccccc23)C(=O)N[C@@H](CCCCN)C(=O)N[C@@H]([C@@H](C)O)C(=O)N1)C(N)=O
B3: D-Ser-D-Ser-D-Ser-D-Ser-D-Ser-L-Lys-D-Ser-D-Ser-cyclo[L-Cys-L-Phe-D-Trp-L-Lys-L-Thr-L-Cys]-L-Thr-NH2 (peptide)
peptide: [dS][dS][dS][dS][dS]K[dS][dS]CF[dW]KTCT-NH2
modifications: disulfide 9-14; N-terminus assumed
SMILES: C[C@@H](O)[C@H](NC(=O)[C@@H]1CSSC[C@H](NC(=O)[C@@H](CO)NC(=O)[C@@H](CO)NC(=O)[C@H](CCCCN)NC(=O)[C@@H](CO)NC(=O)[C@@H](CO)NC(=O)[C@@H](CO)NC(=O)[C@@H](CO)NC(=O)[C@H](N)CO)C(=O)N[C@@H](Cc2ccccc2)C(=O)N[C@H](Cc2c[nH]c3ccccc23)C(=O)N[C@@H](CCCCN)C(=O)N[C@@H]([C@@H](C)O)C(=O)N1)C(N)=O
B4: D-Ser-D-Ser-D-Ser-D-Ser-D-Ser-D-Ser-D-Ser-D-Ser-D-Ser-D-Ser-D-Ser-D-Ser-D-Ser-D-Ser-D-Ser-L-Lys-D-Tyr-D-Tyr-cyclo[L-Cys-L-Phe-D-Trp-L-Lys-L-Thr-L-Cys]-L-Thr-NH2 (peptide)
peptide: [dS][dS][dS][dS][dS][dS][dS][dS][dS][dS][dS][dS][dS][dS][dS]K[dY][dY]CF[dW]KTCT-NH2
modifications: disulfide 19-24; N-terminus assumed
SMILES: C[C@@H](O)[C@H](NC(=O)[C@@H]1CSSC[C@H](NC(=O)[C@@H](Cc2ccc(O)cc2)NC(=O)[C@@H](Cc2ccc(O)cc2)NC(=O)[C@H](CCCCN)NC(=O)[C@@H](CO)NC(=O)[C@@H](CO)NC(=O)[C@@H](CO)NC(=O)[C@@H](CO)NC(=O)[C@@H](CO)NC(=O)[C@@H](CO)NC(=O)[C@@H](CO)NC(=O)[C@@H](CO)NC(=O)[C@@H](CO)NC(=O)[C@@H](CO)NC(=O)[C@@H](CO)NC(=O)[C@@H](CO)NC(=O)[C@@H](CO)NC(=O)[C@@H](CO)NC(=O)[C@H](N)CO)C(=O)N[C@@H](Cc2ccccc2)C(=O)N[C@H](Cc2c[nH]c3ccccc23)C(=O)N[C@@H](CCCCN)C(=O)N[C@@H]([C@@H](C)O)C(=O)N1)C(N)=O
B5: DOTA-D-Ser-D-Ser-D-Ser-D-Ser-D-Ser-D-Ser-D-Ser-D-Ser-D-Ser-D-Ser-L-Lys-D-Tyr-D-Tyr-cyclo[L-Cys-L-Phe-D-Trp-L-Lys-L-Thr-L-Cys]-L-Thr-NH2 (peptide)
peptide: {DOTA}-[dS][dS][dS][dS][dS][dS][dS][dS][dS][dS]K[dY][dY]CF[dW]KTCT-NH2
modifications: disulfide 14-19
SMILES: C[C@@H](O)[C@H](NC(=O)[C@@H]1CSSC[C@H](NC(=O)[C@@H](Cc2ccc(O)cc2)NC(=O)[C@@H](Cc2ccc(O)cc2)NC(=O)[C@H](CCCCN)NC(=O)[C@@H](CO)NC(=O)[C@@H](CO)NC(=O)[C@@H](CO)NC(=O)[C@@H](CO)NC(=O)[C@@H](CO)NC(=O)[C@@H](CO)NC(=O)[C@@H](CO)NC(=O)[C@@H](CO)NC(=O)[C@@H](CO)NC(=O)[C@@H](CO)NC(=O)CN2CCN(CC(=O)O)CCN(CC(=O)O)CCN(CC(=O)O)CC2)C(=O)N[C@@H](Cc2ccccc2)C(=O)N[C@H](Cc2c[nH]c3ccccc23)C(=O)N[C@@H](CCCCN)C(=O)N[C@@H]([C@@H](C)O)C(=O)N1)C(N)=O

Molecular target: somatostatin subtype 2 rat receptor (rat, UniProt P30680 1-369)
Assay: cell-based or functional assay

somatostatin subtype 2 rat receptor, sequence (P30680 whole entry): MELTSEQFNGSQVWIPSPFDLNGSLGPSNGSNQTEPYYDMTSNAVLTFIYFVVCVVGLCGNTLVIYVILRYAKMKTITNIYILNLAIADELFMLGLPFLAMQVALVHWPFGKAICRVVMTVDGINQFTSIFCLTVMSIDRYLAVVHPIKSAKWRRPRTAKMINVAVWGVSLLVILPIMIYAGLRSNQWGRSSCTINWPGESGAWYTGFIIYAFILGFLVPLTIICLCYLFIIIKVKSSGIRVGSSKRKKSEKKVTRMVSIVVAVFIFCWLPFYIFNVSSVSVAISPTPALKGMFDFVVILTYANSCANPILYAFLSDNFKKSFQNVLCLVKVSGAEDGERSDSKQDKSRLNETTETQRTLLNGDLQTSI

Row | Binder | IC50 (nM), inhibition of GH release from primary cultures of rat pituitary cells
1 | B1 | 0.57 nM
2 | B2 | 0.12 nM
3 | B3 | 3.29 nM
4 | B4 | 0.32 nM
5 | B5 | 0.71 nM
